Reference: patent publication US20040214235A1 (KIRIN BEER, published 2004)
Values belong to the binder of their own block, whether it stands above or below them.

Columns and labels:
[1] = molecular target: T1, human TRAIL-R2 on the surface of cells (Colo205, U251, Jurkat, normal human hepatocytes) (human, UniProt O14763 56-440); assay: cell-based or functional assay
[2] = molecular target: T2, TRAIL-R1-hFc, fusion protein of the extracellular region of human TRAIL-R1 and the Fc region of human IgG1 (human, UniProt O00220 24-239); assay: ELISA, TRAIL-R1-hFc coated plate, purified antibody
T2 construct: extracellular domain; Bought (ALEXIS); not shown: Fc region of human IgG1
T2 sequence (looked up): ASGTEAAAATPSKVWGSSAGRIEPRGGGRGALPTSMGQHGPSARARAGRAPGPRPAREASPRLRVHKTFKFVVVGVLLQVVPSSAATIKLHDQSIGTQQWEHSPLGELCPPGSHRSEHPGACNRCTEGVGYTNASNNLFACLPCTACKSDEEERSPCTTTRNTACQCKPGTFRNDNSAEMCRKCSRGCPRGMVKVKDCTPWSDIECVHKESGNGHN

[3] = molecular target: T2, TRAIL-R1-hFc, fusion protein of the …; assay: ELISA, TRAIL-R1-hFc coated plate, hybridoma culture supernatant
[4] = molecular target: T1, human TRAIL-R2 on the surface of cells …; assay: cell-based or functional assay; remark: listed apart in the source
[5] = molecular target: T3, TRAIL-R2-hFc, fusion protein of the extracellular region of human TRAIL-R2 and the Fc region of human IgG1 (human, UniProt O14763 56-210); assay: SPR (BIACORE 2000), TRAIL-R2-hFc immobilised on CM5, bivalent model
T3 construct: extracellular domain; Bought (ALEXIS) or made with TRAIL-R2 amino acids 1 to 183 as the extracellular region; not shown: Fc region of human IgG1
Description: TRAIL-R1-hFc or TRAIL-R2-hFc was diluted at a final concentration of 10 μg/ml with 10 mM Acetic Acid (pH 4.0), and then immobilized on a sensor chip CM5 by the amine coupling method. The immobilization conditions are as follows. NHS activation and ethanolamine blocking were performed according to the methods described in the instructions. Coupling of TRAIL-R1-hFc and that of TRAIL-R2-hFc were performed by manual injection as described in the instructions.
Each antibody of the dilution series was added in order at a flow rate of 20 μl/minute by the KINJECT method (binding for 2 minutes and dissociation for 6 minutes), thereby obtaining a sensorgram. […] Each antibody of the dilution series was added in order at a flow rate of 20 μl/minute by the KINJECT method (binding for 2 minutes and dissociation for 2 minutes), thereby obtaining sensorgrams. For each antibody, kinetics analysis was performed using each sensorgram and BIAevaluation software ver3.2 (Biacore). As a fitting model, global fitting was performed using a Bivalent model, so that the binding rate constant and the dissociation rate constant were found. In addition, a dissociation constant (Kd value) was calculated from the two constants. Also, the sensorgrams were used for fitting after the subtraction of control cells and buffer correction. In the tables, “kass” indicates the binding rate constant, “kdiss” indicates the dissociation rate constant, and “KD” indicates the dissociation constant.

[6] = molecular target: T3, TRAIL-R2-hFc, fusion protein of the …; assay: ELISA on a plate coated with TRAIL-R2-hFc, detection with HRP-labeled goat anti-human Ig kappa, absorbance at 450 nm (method of Example 18)
Description: 50 μl of the thus prepared solution was added to each well of a 96-well microplate for ELISA (Maxisorp, Nunc) and incubated for 1 hour at room temperature or at 4° C. overnight, thereby coating TRAIL-R1-hFc or TRAIL-R2-hFc to the microplate. […] Thus, a microplate having each well coated with TRAIL-R1-hFc or TRAIL-R2-hFc was prepared.
The culture supernatant of each hybridoma (50 μl) was added to each well, reaction was performed at room temperature for 1 hour, and then each well was washed three times in 0.1% Tween20-containing PBS (PBS-T). Subsequently, horseradish peroxidase-labeled goat anti-human Igκ antibodies (50 μl/well, Biosource International) were diluted 2000 times in PBS-T containing 10% Block Ace (Dainippon Pharmaceutical Co., Ltd.). 50 μl of the thus prepared solution was added to each well, and incubation was then performed at room temperature for 30 minutes; The microplate was washed three times with PBS-T, and then 50 μl of a TMB chromogenic substrate solution (DAKO) was added to each well, followed by incubation at room temperature for 20 minutes. 0.5M sulfuric acid was added (50 μl/well) to each well to stop reaction.
For the measurement of the binding activity, 96-well microplate for ELISA (Maxisorp, Nunc) to which TRAIL-R2-hFc was coated was used.

- binding result [2]: binds
B1: human anti-TRAIL-R2 monoclonal antibody KMTR1 (antibody, IgG1, V domains shown)
VH: EVQLLESGGGLVQPGRSLRLSCAASGFTFSSYAMSWVRQAPGKGLEWVSAISGSGGSRYYADSVKGRFTISRDNSKNTLYLQMNSLRAEDTAVYYCAKESSGWFGAFDYWGQGTLVTVSS
VL: EIVLTQSPDFQSVTPKEKVTITCRASQSIGSSLHWYQQKPDQSPKLLIKYASQSFSGVPSRFSGSGSGTDFTLTINSLEAEDAAAYYCHQSSSLPITFGQGTRLEIK
notes: IgG1, human kappa light chain
- LD50, Colo205 cells, 48 h, with goat anti-human IgG cross-linker [1]: 0.04 µg/mL
- LD50, normal human hepatocytes, 24 h, with goat anti-human IgG cross-linker [1]: > 10 µg/mL

- binding result [3]: no binding
B2: human anti-TRAIL-R2 monoclonal antibody H-48-2 (antibody, IgG1, V domains shown)
VH: QLQLQESGPGLVKPSETLSLTCTVSGGSISSSSYYWGWVRQPPGKGLEWIGSIHYSGSTFYNPSLKSRVTISVDTSKNQFSLKLSSVTAADTTVYYCARQGSTVVRGVYYYGMDVWGQGTTVTVSS
VL: not shown
notes: IgG1, human kappa light chain; Hybridoma FERM BP-7599; also called H-48-2-IgG1

- Kd [5]: 0.0729 nM
- koff [5]: 3.84e-05 s⁻¹
- kon [5]: 527000 M⁻¹ s⁻¹
B3: human anti-TRAIL-R2 monoclonal antibody E-11-13 (antibody, IgG1, V domains shown)
VH: QLQLQESGPGLVKPSETLSLTCTVSGGSIISKSSYWGWIRQPPGKGLEWIGSIYYSGSTFYNPSLKSRVTISVDTSKNQFSLKLSSVTAADTAVYYCARLTVAEFDYWGQGTLVTVSS
VL: EIVLTQSPATLSLSPGERATLSCRASQSVSSFLAWYQQKPGQAPRLLIYDASNRATGIPARFSGSGSGTDFTLTISSLEPEDFAVYYCQQRSNWPLTFGPGTKVDIK
notes: Hybridoma FERM BP-7698 / BP-7770; also called E-11-3
- LD50, Jurkat cells, 48 h [4]: 0.1 µg/mL
- LD50, U251 cells, 48 h [4]: 0.3 µg/mL
- LD50, Colo205 cells, 48 h, with goat anti-human IgG cross-linker [1]: 0.11 µg/mL
- LD50, normal human hepatocytes, 24 h, with goat anti-human IgG cross-linker [1]: 2.8 µg/mL

- EC50 (read off the curve) [6]: ~30 ng/mL
B4: recombinant 0304 antibody of which subclass is IgG4 (antibody, V domains shown)
VH: QVQLVQSGAEMKKPGASVKVSCKTSGYTFTNYKINWVRQAPGQGLEWMGWMNPDTDSTGYPQKFQGRVTMTRNTSISTAYMELSSLRSEDTAVYYCARSYGSGSYYRDYYYGMDVWGQGTTVTVSS
VL: EIVLTQSPATLSLSPGERATLSCRASQSVSSYLAWYQQKPGQAPRLLIYDASNRATGIPARFSGSGSGTDFTLTISSLEPEDFAVYYCQQRSNWPLTFGGGTKVEIK

- binding result [2]: no binding
B5: human anti-TRAIL-R2 monoclonal antibody 0304 (from the hybridoma) (antibody, IgG4, V domains shown)
VH: QVQLVQSGAEMKKPGASVKVSCKTSGYTFTNYKINWVRQAPGQGLEWMGWMNPDTDSTGYPQKFQGRVTMTRNTSISTAYMELSSLRSEDTAVYYCARSYGSGSYYRDYYYGMDVWGQGTTVTVSS
VL: EIVLTQSPATLSLSPGERATLSCRASQSVSSYLAWYQQKPGQAPRLLIYDASNRATGIPARFSGSGSGTDFTLTISSLEPEDFAVYYCQQRSNWPLTFGGGTKVEIK
notes: IgG4, human kappa light chain
- LD50, Colo205 cells, 48 h, with goat anti-human IgG cross-linker [1]: 0.02 µg/mL
- LD50, normal human hepatocytes, 24 h, with goat anti-human IgG cross-linker [1]: 0.002 µg/mL

- Kd [5]: 2.35 nM
- koff [5]: 0.00144 s⁻¹
- kon [5]: 613000 M⁻¹ s⁻¹
B6: human anti-TRAIL-R2 monoclonal antibody L-30-10 (antibody, IgG1, V domains shown)
VH: QLQLQESGPGLVKPSETLSLTCTVSGGSISSRSNYWGWIRQPPGKGLEWIGNVYYRGSTYYNSSLKSRVTISVDTSKNQFSLKLSSVTVADTAVYYCARLSVAEFDYWGQGILVTVSS
VL: EIVLTQSPATLSLSPGERATLSCRASQSVSSFLAWYQQKPGQAPRLLIYDASNRATGSPARFSGSGSGTDFTLTISSLEPEDFAVYYCQQRSDWPLTFGPGTKVDIK
notes: Hybridoma FERM BP-7700 / BP-7769
- LD50, Jurkat cells, 48 h [4]: 0.13 µg/mL
- LD50, U251 cells, 48 h [4]: 0.17 µg/mL
- LD50, Colo205 cells, 48 h, with goat anti-human IgG cross-linker [1]: 0.1 µg/mL
- LD50, normal human hepatocytes, 24 h, with goat anti-human IgG cross-linker [1]: 24 µg/mL

- EC50 (read off the curve) [6]: ~30 ng/mL
B7: recombinant 0304 antibody of which subclass is IgG1 (antibody, V domains shown)
VH: QVQLVQSGAEMKKPGASVKVSCKTSGYTFTNYKINWVRQAPGQGLEWMGWMNPDTDSTGYPQKFQGRVTMTRNTSISTAYMELSSLRSEDTAVYYCARSYGSGSYYRDYYYGMDVWGQGTTVTVSS
VL: EIVLTQSPATLSLSPGERATLSCRASQSVSSYLAWYQQKPGQAPRLLIYDASNRATGIPARFSGSGSGTDFTLTISSLEPEDFAVYYCQQRSNWPLTFGGGTKVEIK
